Test results as given in US20130273029A1 (Novartis, published 2013).

Columns and labels:
[1] = target: T1, HER3 L268A: CD33-[Human HER3, residues 20-640, L268A]-TAG (human, UniProt P21860 20-640); test: SET
T1 construct: also called HER3 L268A-Tag; human mutant HER3 (L268A); not shown: C-terminal TAG (e.g., FLAG TAG)

[2] = target: T2, HER3 K267A/L268A: CD33-[Human HER3, residues 20-640, K267A/L268A]-TAG (human, UniProt P21860 20-640); test: SET
T2 construct: not shown: C-terminal TAG (e.g., FLAG TAG)
T2 sequence (P21860 20-640 K267A/L268A): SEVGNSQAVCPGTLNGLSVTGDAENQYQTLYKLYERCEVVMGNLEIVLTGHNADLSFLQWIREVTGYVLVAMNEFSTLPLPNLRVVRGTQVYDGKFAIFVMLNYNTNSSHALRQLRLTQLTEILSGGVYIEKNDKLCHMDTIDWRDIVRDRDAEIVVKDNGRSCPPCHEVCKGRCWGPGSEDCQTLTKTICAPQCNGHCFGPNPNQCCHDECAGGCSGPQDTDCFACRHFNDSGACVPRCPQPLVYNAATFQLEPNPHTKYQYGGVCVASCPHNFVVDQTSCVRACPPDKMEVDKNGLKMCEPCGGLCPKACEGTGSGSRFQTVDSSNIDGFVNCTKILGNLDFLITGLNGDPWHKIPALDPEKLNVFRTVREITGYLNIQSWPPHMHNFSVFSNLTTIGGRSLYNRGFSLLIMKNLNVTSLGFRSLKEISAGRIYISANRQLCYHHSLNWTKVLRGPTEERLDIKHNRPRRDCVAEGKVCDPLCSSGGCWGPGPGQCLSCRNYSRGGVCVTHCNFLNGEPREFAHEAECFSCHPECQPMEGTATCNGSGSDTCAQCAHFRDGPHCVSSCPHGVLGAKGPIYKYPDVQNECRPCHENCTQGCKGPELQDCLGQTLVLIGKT

[3] = target: T3, Hu HER3: CD33-[Human HER3, residues 20-640]-TAG (human, UniProt P21860 20-640); test: SET, IgG vs HER3 ECD
T3 construct: also called hu HER3-Tag; HER3-Tag; not shown: C-terminal TAG (e.g., FLAG TAG)
T3 sequence (P21860 20-640): as the sequence (P21860 20-640 K267A/L268A) above, with A248K, A249L counted along it
Description: Affinity determination in solution was essentially performed as previously described (Friguet et al., (1985) J Immunol Methods 77:305-19). In order to improve the sensitivity and accuracy of the SET method, it was transferred from classical ELISA to ECL based technology (Haenel et al., (2005) Anal Biochem 339:182-84).
The data was evaluated with XLfit software (ID Business Solutions) applying customized fitting models.
Antibody affinity was determined by solution equilibrium titration (SET) as described above. The results are summarized in Table 3 and example titration curves for MOR12616 and MOR12925 are contained in FIG. 1.

[4] = target: T4, Human HER3, endogenous, on human cancer cell lines (SK-Br-3, MCF7, BT-474) (human, UniProt P21860 20-1342); test: cell-based or functional assay
T4 sequence (P21860 20-1342): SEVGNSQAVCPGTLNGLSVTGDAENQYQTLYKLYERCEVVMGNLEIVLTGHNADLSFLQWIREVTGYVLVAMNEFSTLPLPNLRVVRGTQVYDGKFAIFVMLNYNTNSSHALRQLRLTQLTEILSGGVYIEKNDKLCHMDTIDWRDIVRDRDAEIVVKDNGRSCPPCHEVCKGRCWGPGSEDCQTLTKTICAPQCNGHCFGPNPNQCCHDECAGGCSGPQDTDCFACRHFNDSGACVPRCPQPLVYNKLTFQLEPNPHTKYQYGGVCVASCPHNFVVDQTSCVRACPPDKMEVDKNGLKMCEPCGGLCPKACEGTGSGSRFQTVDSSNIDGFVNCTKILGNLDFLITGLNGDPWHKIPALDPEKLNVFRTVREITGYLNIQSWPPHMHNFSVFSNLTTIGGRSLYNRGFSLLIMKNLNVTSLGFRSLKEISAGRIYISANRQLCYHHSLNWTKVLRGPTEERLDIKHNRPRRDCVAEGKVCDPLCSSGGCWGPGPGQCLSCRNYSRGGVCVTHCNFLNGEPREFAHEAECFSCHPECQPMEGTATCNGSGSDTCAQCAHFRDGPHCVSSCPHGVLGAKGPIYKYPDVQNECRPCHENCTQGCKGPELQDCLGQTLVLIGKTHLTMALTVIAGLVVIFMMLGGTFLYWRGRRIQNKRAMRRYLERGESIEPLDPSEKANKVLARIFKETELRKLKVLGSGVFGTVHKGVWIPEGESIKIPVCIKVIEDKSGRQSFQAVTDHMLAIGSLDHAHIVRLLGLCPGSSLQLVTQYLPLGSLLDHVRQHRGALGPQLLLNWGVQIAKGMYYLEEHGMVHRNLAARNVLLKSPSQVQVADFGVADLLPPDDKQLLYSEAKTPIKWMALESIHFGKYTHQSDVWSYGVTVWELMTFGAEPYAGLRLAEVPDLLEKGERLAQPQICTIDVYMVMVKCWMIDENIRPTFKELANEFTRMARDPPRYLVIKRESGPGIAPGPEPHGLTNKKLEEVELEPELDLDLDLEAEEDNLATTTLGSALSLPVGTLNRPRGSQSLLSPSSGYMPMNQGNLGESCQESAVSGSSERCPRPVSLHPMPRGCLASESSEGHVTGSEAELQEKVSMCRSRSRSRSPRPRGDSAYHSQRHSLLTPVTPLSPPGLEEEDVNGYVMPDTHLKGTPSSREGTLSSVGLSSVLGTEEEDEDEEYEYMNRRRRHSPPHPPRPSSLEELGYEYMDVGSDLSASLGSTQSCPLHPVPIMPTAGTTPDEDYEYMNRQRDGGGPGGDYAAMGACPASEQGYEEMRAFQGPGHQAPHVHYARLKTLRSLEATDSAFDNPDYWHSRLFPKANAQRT

[5] = target: T4, Human HER3, endogenous, on human cancer …; test: cell-based or functional assay; remark: listed apart in the source
[6] = target: T4, Human HER3, endogenous, on human cancer …; test: cell-based or functional assay; remark: listed apart in the source
[7] = target: T5, HER3 K267A: CD33-[Human HER3, residues 20-640, K267A]-TAG (human, UniProt P21860 20-640); test: SET, IgG vs mutant HER3
T5 construct: also called HER3 K267A-Tag; not shown: C-terminal TAG (e.g., FLAG TAG)
T5 sequence (P21860 20-640 K267A): as the sequence (P21860 20-640 K267A/L268A) above, with A249L counted along it

[8] = target: T3, Hu HER3: CD33-[Human HER3, residues …; test: SET, IgG vs soluble HER3-Tag
How it was run: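 Affinity measured by solution equilibrium titration, with read-out moved from classical ELISA to ECL-based detection for sensitivity. Titration data were fitted with customized fitting models.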

T1 sequence (P21860 20-640 L268A): as the sequence (P21860 20-640 K267A/L268A) above, with A248K counted along it

B1: MOR13768 (antibody, human IgG1, kappa, V domains shown)
VH: QVQLVQSGAEVKKPGESLKISCKGSGYSFTSSWVAWVRQMPGKGLEWMGIIYPGQSDTIYSPSFQGQVTISADKSISTAYLQWSSLKASDTAMYYCARVHIIQPPSAWSYNAMDVWGQGTLVTVSS
VL: DIQMTQSPSSLSASVGDRVTITCRASQSISTYLNWYQQKPGKAPKLLIFGASNLQSGVPSRFSGSGSGTDFTLTISSLQPEDFATYYCQQSITELFTFGQGTKVEIKR
notes: tested as IgG
binding result [1]: no binding | binding result [2]: no binding | Kd [3]: 0.037 nM | BT474 pHER3 % inhibition [4]: 70% | BT474 pHER3 IC50 [4]: 437 pM | MCF7 pHER3 % inhibition [4]: 75% | MCF7 pHER3 IC50 [4]: 412 pM | SK-Br-3 pHER3 % inhibition [4]: 81% | SK-Br-3 pHER3 IC50 [4]: 139 pM | BT-474 pAkt (S473) % inhibition [5]: 81% | BT-474 pAkt (S473) IC50 [5]: 466 pM | MCF7 pAkt (S473) % inhibition [5]: 73% | MCF7 pAkt (S473) IC50 [5]: 347 pM | SK-Br-3 pAkt (S473) % inhibition [5]: 94% | SK-Br-3 pAkt (S473) IC50 [5]: 105 pM | BT-474 proliferation % inhibition [6]: 43% | BT-474 proliferation IC50 [6]: 1210 pM | MCF7 proliferation % inhibition [6]: 58% | SK-Br-3 proliferation % inhibition [6]: 43% | SK-Br-3 proliferation IC50 [6]: 198 pM | Kd [7]: 0.099 nM | Kd [8]: 0.037 nM
